Assay results from the DeepSol protein solubility set.

Assay: soluble on expression in E. coli; label from the status in PepcDB or PDB records

SNAMKAIIKEDVQASLERYADRPVYIHLETTTGSYSAHLNEKNMTVVAYIRNAKVTYHQAKIKGNGPYRVGLKTEEGWIYAEGLTEYTVDEENRLLMAGHLPGGKLAISLQISEKPFTV
soluble on expression in E. coli: soluble

SLSHGKGTDMLPEIAAAVGFLSSLLRTRGCVSEQRLKVFSGALQEALTEHYKHHWFPEKPSKGSGYRCIRINHKMDPIISRVASQIGLSQPQLHQLLPSELTLWVDPYEVSYRIGEDGSICVLYEEAPLAASCGEG
soluble on expression in E. coli: soluble

MTWNPLALATALQTVPEQNIDVTNSENALIIKMNDYGDLQINILFTSRQMIIETFICPVSSISNPDEFNTFLLRNQKMMPLSSVGISSVQQEEYYIVFGALSLKSSLEDILLEITSLVDNALDLAEITEEYSHLEHHHHHH
soluble on expression in E. coli: soluble

MGSDKIHHHHHHMSNTGSLSYLRILDFTGEIGPYAAKLYAGLGADVIHIEPIAGDTLRSTGPFFGNRPGKERSMQFIYYNAGKRGLVLDLKKEKGKEVFVDLCKGADILFESFTPGYLDELGLSFDVLSAANPKLVQTSITPFGSFGPYSTYPGSDLTCSALGGFLYLAGIDNDKPVRACDNQAYRMAEVYAAVGSSIALLFAQKTGVGQFVDVSCMEAVGMALETAAQCWDLEGTLRRGRGKEAGSATIHPCKDGFIAIVAIVGRNKTMWTPFVQWMKEEGVEEWELFDNDNWINASYRESKAGYELFCRIFERFTMKHTKQYLYDAGQAHRVAVSPVSNGKDLLENPQLNHHDFWQRLYHEPVGAEVVCPGAPYEFGHLKWRLGDFAPTFGQHTAEVLGECGYSRSEIDALDREGVVHVAKS
soluble on expression in E. coli: not soluble

SVLQVLHIPDERLRKVAKPVEEVNAEIQRIVDDMFETMYAEEGIGLAATQVDIHQRIIVIDVSENRDERLVLINPELLEKSGETGIEEGCLSIPEQRALVPRAEKVKIRALDRDGKPFELEADGLLAICIQHEMDHLVGKLFMDYLSPLKQQRIRQKVEKLDRLKARAPNSSSVDKLAAALEHHHHHH
soluble on expression in E. coli: soluble

MEKVGEDEEKTIEEANNSTEETKSDKEEERIKGTIADQVDPVDSTEEGSTGPSNSHTVVSKDHDFSESDMEDEEQVLEFFRRNHGFSPEVTKRNNFPYVNNSERMVLQFQEDTSAETEQTNEMFHSLNDSNEILEGTKSSSASDEDTEDSSSNSDLDSSLSRYYFDGSLPVSAHVEEFETHQDESLVPKDENQVCNPNWWGMI
soluble on expression in E. coli: not soluble

MGSDKIHHHHHHMHFLDDSLLPENQEKLVIQVAPYGPQWLPGDSDDIPVTMDEQVQKAVDCYNAGATVLHVHVREADGKGSKRLSMFNEMLARLREAVPGMVLQVGGSISFAPENDNQAAKWLNDDTRHMLAELSPRPDQVTVAINTSQMNVMELMTEADVAGTSLTNPALQAAYRDMIVPSNPSWHVEHIKRLVANGIQPHFMLGNLTQLETVERLIRRGVYTGPLVLNYVAIGGGAAGLHPADMVEFARRTPDGAVLTVETLNRNVVPLNTMAIAMGLHVRVGIEDTLYGPDGKRATSVQQIEKMVNIARELNREIASGTDAHRIYQTGTRWSSTEETLNRLGMVPNRQPEQRGVPPRKAA
soluble on expression in E. coli: not soluble

MPLAKDLLHPLPAEEKRKHKLKRLVQHPNSYFMDVKCPGCYRITTVFSHAQGVVVCAGCATILCQPTGGRAKLTEGCSFRRKPQLEHHHHHH
soluble on expression in E. coli: not soluble

MPGAMESPNESEDVSKTFFKLCDGLRLGELVTTEHFRLSDVMSAIELGEPKMDVGVGSKHIKTLKEAISGGLYADDYPFQLAIMDSTLAMVVAWLEGSALGSTVWTNVLLSNVTFVKHPVFHPFASGVNLFIRNAHALINSVGNLEELPEDFNPQMLFSHQRWAPRRVVVQLMREQVTLLGTTGRKWRESAFSKQAYDICCAVASRLEMFIMLLEIIGLLVAPEIEDPNFDHKVHLGDFYVHEKEYEGAEENSDEKSEESTSDPTPSSEAKSETTEKKEQKSNDEATDETDQNDDENVGDDEDEDDMKQFKPNFGFASILAERLCKVTKAYAETVKLGRRAPDNIDGDGDYLWLGAYEPKTCIRMIPACFPRKIKVPSRQEAADWWVKCAERIYHLCIVTPKTSKDLNYLFYFARTFGQNACVFTRSLLQICMFPVDNHLCGDENRSIADAVEYSLSNCFCPQILDRVSPVYKDQTAQSLYVLFLNHMSKLAITVYGSFGCNLSRQRDRLEMAIEDLGQIHSYAGRLEERTDEVLLSGKMVTAKEQNYSYHSVATFVFHNLLAIINHYFELGFRMDLYVPYEFPYIYWFIGSVQAHWMRTTLERSQEIQLNVYQANPLRETKNKKLWEERCKLGEELKRRVAAHQFSVLNQIAISMISDGVVRLTVVLIRKGIIKMPKGGDDAEKLRFERRFEPFDSLGPPVRVDYERFKSDSGIDQMYEDKIETLIDQAQKSFNEAREHLEKIDNSVEQNREMMQLIHVAKSNIIACRVLKLDLTDRNVVWSFSEEIPMFPCLKISKK
soluble on expression in E. coli: not soluble

PHFRGPVRKSTSIDTGPTESPASLKRVASPAAKPAIPGEEFIAMYTYESSEQGDLTFQQGDVIVVTKKDGDWWTGTGGDKSGVFPSNYVRLKDSEGSGTAGKTGSLGKKPEIAQVIASYAATGPEQLTLAPGQLILIRKKNPGGWWEGELQARGKKRQIGWFPANYVKLLSPGTSKITPTELPKTAVQPAVCQVIGMYDYTAQNDDELAFSKGQIINVLNKEDPDWWKGEVSGQVGLFPSNYVKLTTDMDPSQQWCSDLHLLDMLTPTERKRQGYIHELIVTEENYVNDLQLVTEIFQKPLTESELLTEKEVAMIFVNWKELIMCNIKLLKALRVRKKMSGEKMPVKMIGDILSAQLPHMQPYIRFCSCQLNGAALIQQKTDEAPDFKEFVKRLAMDPRCKGMPLSSFILKPMQRVTRYPLIIKNILENTPENHPDHSHLKHALEKAEELCSQVNEGVREKENSDRLEWIQAHVQCEGLSEQLVFNSVTNCLGPRKFLHSGKLYKAKSNKELYGFLFNDFLLLTQITKPLGSSGTDKVFSPKSNLQYKMYKTPIFLNEVLVKLPTDPSGDEPIFHISHIDRVYTLRAESINERTAWVQKIKAASELYIETEKKKREKAYLVRSQRATGIGRLMVNVVEGIELKPCRSHGKSNPYCEVTMGSQCHITKTIQDTLNPKWNSNCQFFIRDLEQEVLCITVFERDQLSADDFLGRTEIRVADIKKDQGSKGPVTKCLLLHEVPTGEIVVRLDLQLFDEP
soluble on expression in E. coli: soluble

MELRVGNRYRLGRKIGSGSFGDIYLGTDIAAGEEVAIKLECVKTKHPQLHIESKIYKMMQGGVGIPTIRWCGAEGDYNVMVMELLGPSLEDLFNFCSRKFSLKTVLLLADQMISRIEYIHSKNFIHRDVKPDNFLMGLGKKGNLVYIIDFGLAKKYRDARTHQHIPYRENKNLTGTARYASINTHLGIEQSRRDDLESLGYVLMYFNLGSLPWQGLKAATKRQKYERISEKKMSTPIEVLCKGYPSEFATYLNFCRSLRFDDKPDYSYLRQLFRNLFHRQGFSYDYVFDWNMLKFGASRAADDAERERRDREERLRHSRNPATRGLPSTASGRLRGTQEVAPPTPLTPTSHTANTSPRPVSGMERERKVSMRLHRGAPVNISSSDLTGRQDTSRMSTSQIPGRVASSGLQSVVHR
soluble on expression in E. coli: not soluble

MNEQGVIFNSNGKQLVGIEHLPEPIHQGQTNKGVIIVVGGPQTRVGSHRLFVHLARALAKQRIVVFCFDYSGAGDSEGTVSTFTDIQDDIEAAFTPLSSAIVILLSWLDGAYAMLHRPFCFTSMSALNKRR
soluble on expression in E. coli: not soluble

MGSSHHHHHHMTLNQPEYFTKYENLHFHRDENGILEVRMHTNGSSLVFTGKTHREFPDAFYDISRDRDNRVVILTGSGDAWMAEIDFPSLGDVTNPREWDKTYWEGKKVLQNLLDIEVPVISAVNGAALLHSEYILTTDIILASENTVFQDMPHLNAGIVPGDGVHILWPLALGLYRGRYFLFTQEKLTAQQAYELNVVHEVLPQSKLMERAWEIARTLAKQPTLNLRYTRVALTQRLKRLVNEGIGYGLALEGITATDLRNN
soluble on expression in E. coli: soluble

MTEPKEERRERRMSSPIMPENMSDFDLIVGEIEAENGAEGSFQRAAECFKLIEDRVSEDPDLSEIMENIRMNQGCEVSGMSTGLSSTATTVSSKMASQWISHMKRSFKRRAICLSEEQQSAMRKMVTEELYTQHGPADLAVRDILLLYSRGLEAHHDGRYREMFERLRPCIPYFNTNVLVWIRISEALIYEYYEETWEFNDIYDRLFEKQPHHYMPSVRRRCNEMRPRHPDMTLRFAETATLMCFALAKQSSREPVHYAAAALHGFMLLKLRKYSEAIEAVNFAVERYDRAGEWQDDLAILLTYKAEGMIGIGRYNRAIEYALRVMNAAKCARARQRATMLVVMAYMRKRNYLKAHEYVIKLLKEGKLDEVMLENVALLGLNLAHLMGNMKLFKRFESMLQRIVY
soluble on expression in E. coli: not soluble

MDGCMPGISATTLLKQQNIPESFKFYFKRRFAPLVTDGPHLNELVRPRLKIAIVTETWPPEINGVAMSLLQLCKGLQEQGHKILLVRPQQKRECYEFSPHKECLVHAQRIPKYPELQFGWPQYLKVAKAFEDFTPDVVHVVTEGPLGLTALYAARAKQIPVSSGFHSPFQDFSRFFDLAFLLKPIQGYLRWFHNHTQITCVPSQDTEKALRAFGVTCPLSIVGRGVDPKFFSPDFRNEALRERWKAASDTVVMLYVGRLSPEKEIHILIQNYAAMRRVEPRNVKLVIVGSGPDRARLEALDETQEVIFMGSLSGKNLAEAYASADVFVFASQVETFGNVVLEAMASGLPVVAYDYACAHQYIQHGVTGWLSPLGQPATFIQAMRQLSGVKQLRQMGQRARQCVEHDGWQYPVQQMEQALYRVVKEPYMKLEHHHHHH
soluble on expression in E. coli: not soluble

MCVKVACVGGGPAGLYLSILLKRQDPAHDVTVYERDPEGSTYGWGVTYWRGLLDRLRELDPGSARAVEEHSVRWRDGVAHVGGLATRHHGDEGFGIGRHRLLAILAARARELGVRLEFEHPVTGANPPAADLVVAADGAGSALRTHHADHFGTEITGGRDHYVWLGTTKVFDAFTFAFVETDHGWIWAYGYGFGPEGSTCVVECAPGTWTGLGLDRADEAEGLGLLEKLFADVLDGHPLSARSSGRASAAWPVFRTLTNRTWSRDNLVLLGDAAHTTHYSIGAGTTLALEDAMALATALRERDTLPDALAHYERERRAALLPVQSAARLSAQWYENLPRYIHLPPEQMFALLGQRHSPLLPHLPPRLYYRIDRAAGRLETLRRVKRRLGPVIARTVQARRLAAGDGRARSGRPDAVPAHRGLEHHHHHH
soluble on expression in E. coli: not soluble

MLELVQKGITPEDAITAGKKARKYFELTYYVMPGLGGRERSEQHAVNTARVINKAQPTFVRLRTLTVIEGTPIEKLVGKEITLLGPVEQLEEVRRLVEEIKVETLLLSDHVSNYLFTRSGPIFFGVSGKLPDEKEQMLEQVDDAIKTVKLLEESGERVFNSNDMYRMGLIGL
soluble on expression in E. coli: not soluble

MAHHHHHHMGNKISTEDHIFRLKLKTKELEKLSQRSELEEKKLIGDVKKAIQAGKIELARLYAEKCIRKKNEKVNYLNLSNKLDVLVSRLEGAHRCASLVKDVGVMIPLIQKINAETNAIKIGNDVTKLENIFDEISISSELINDTVQTSSAISAPTEEVDELISKIADEHALKLDGQIGSVHPINKHLEEISNMSERIKNLK
soluble on expression in E. coli: soluble

MAHHHHHHSLEYNLTTTDVVMENVTAFWEEGFSKLFEKAKENNNNRKISNCDTSLFFSNLLLGTPVLKDISFKIERGQLLAVAGSTGAGKTSLLMMIMGELEPSEGKIKHSGRISFCSQYSWIMPGTIKDNIIFGVSYDEYRYRSVIKACQLEEDISKFSEKDNIVLGEGGITLSGGQRARISLARAVYKDADLYLLDSPFGYLDVLTEKEIFESCVCKLMANKTRILVTSKMEHLKKADKILILHEGSVYFYGTFSELQNQRPDFSSKLMGCDTFDQFTAERRNSIITETLRRFSLEGDTSV
soluble on expression in E. coli: soluble
